5 molecules from publication PMC12002313 (Proceedings of the National Academy of Sciences of the …, 2025) can be followed below.

Assay [1] has as its target PTg (genetically detoxified pertussis toxin) (Bordetella pertussis, UniProt P04978+P04979). In kind it is binding.
The target of assay [2] is pertussis toxin (PT), enzymatically active holotoxin (Bordetella pertussis, strain of bought …, UniProt P04977;P04978;P04979;P0A3R5;P04981). As to the kind of experiment: ELISA. For orientation: An ELISA detects its analyte on a solid surface through an enzyme-linked reagent.
Assay [3] deals with pertussis toxin S5 subunit, as it stands in PTg (Bordetella pertussis, UniProt P04981). Kind of assay: cryo-EM structure.
The target in assay [4] is pertussis toxin S3 subunit, as it stands in PTg (Bordetella pertussis, UniProt P04979). As to the kind of experiment: cryo-EM structure.
Assay [5] addresses pertussis toxin S2 subunit, as it stands in PTg (Bordetella pertussis, UniProt P04978). Kind of assay: cryo-EM structure.

Regarding `CC(=O)N[C@H]1[C@H]([C@H](O)[C@H](O)CO)O[C@@](O[C@H]2[C@@H](O)[C@@H](CO)O[C@@H](O[C@H]3[C@H](O[C@@H]4O[C@@H](C)[C@@H](O)[C@@H](O)[C@@H]4O)[C@@H](NC(C)=O)C(O)O[C@@H]3CO)[C@@H]2O)(C(=O)O)C[C@@H]1O` (stereo partly drawn) [sialyl Lewis^X blood group antigen, Neu5Acα2-3Galβ1-4(Fucα1-3)GlcNAc], the RFU entry in assay [1] was “PTg alone binds to sialylated N-glycans, asialo-N-glycans, and other carbohydrates (such as the sialyl Lewis^X”.

B1: hu1B7mut IgG (hu1B7 HC S56A, Q61A, Q64A) (antibody, V domains shown)
VH: QVQLVQSGAEVKKPGASVKVSCKASGYKFTSYWMHWVRQAPGQGLEWIGNIFPGSGATNYAAKFAGRVTLTVDTSTSTAYMELSSLRSEDTAVYYCTRWLSGAYFDYWGQGTTVTVSS
VL: QIVLTQSPATLSVSPGERVTLTCSASSSVSFMYWYQQKPGRAPKPLIYLTSNLPSGVPARFSGSGSGTSYTLTINSLEAEDAATYYCQQWSSHPPTFGSGTKLEIK
Turning to B1, the binding result in assay [2] is “binds”.

B2: hu1B7 IgG (antibody, V domains shown)
VH: QVQLVQSGAEVKKPGASVKVSCKASGYKFTSYWMHWVRQAPGQGLEWIGNIFPGSGSTNYAQKFQGRVTLTVDTSTSTAYMELSSLRSEDTAVYYCTRWLSGAYFDYWGQGTTVTVSS
VL: QIVLTQSPATLSVSPGERVTLTCSASSSVSFMYWYQQKPGRAPKPLIYLTSNLPSGVPARFSGSGSGTSYTLTINSLEAEDAATYYCQQWSSHPPTFGSGTKLEIK
Turning to B2, the binding result in assay [2] is “binds”.

B3: hu1B7 Fab (Fab, V domains shown)
VH: QVQLVQSGAEVKKPGASVKVSCKASGYKFTSYWMHWVRQAPGQGLEWIGNIFPGSGSTNYAQKFQGRVTLTVDTSTSTAYMELSSLRSEDTAVYYCTRWLSGAYFDYWGQGTTVTVSS
VL: QIVLTQSPATLSVSPGERVTLTCSASSSVSFMYWYQQKPGRAPKPLIYLTSNLPSGVPARFSGSGSGTSYTLTINSLEAEDAATYYCQQWSSHPPTFGSGTKLEIK
B3: the binding result in assay [3] is reported as “binds”.

B4: hu11E6 Fab (Fab, V domains shown)
VH: EVQVVESGGGLVQPGRSLRLSCTTSGFTFTDYYVSWVRQAPGKALEWLGFIRNKVNGYTTEFSSSVKGRFTISRDNSKSILYLQMNSLKIEDTAVYYCARVSYYGRGWYFDYWGQGTTLTVSS
VL: DIVMTQSPSSLSASVGDRVTISCRASQDIDNYLSWFQQKPGGTVKLLIYYTSRLHSGVPSRFSGSGSGTDYTLTISSLQPEDIATYFCQQGNTFPWTFGGGTKLEIK
Take B4: the binding result in assay [4] and in assay [5] was “binds” throughout.
